Source: article PMC6774794 (Nature structural & molecular biology, 2019)

What was measured:
[1] = biological target: dynein light chain LC8 (DYNLL1/2) (human) (UniProt P63167); experiment: cryo-EM structure
[2] = biological target: T1, dynein-2 intermediate chain WDR60 (human, UniProt Q8WVS4); experiment: cryo-EM structure
T1 sequence: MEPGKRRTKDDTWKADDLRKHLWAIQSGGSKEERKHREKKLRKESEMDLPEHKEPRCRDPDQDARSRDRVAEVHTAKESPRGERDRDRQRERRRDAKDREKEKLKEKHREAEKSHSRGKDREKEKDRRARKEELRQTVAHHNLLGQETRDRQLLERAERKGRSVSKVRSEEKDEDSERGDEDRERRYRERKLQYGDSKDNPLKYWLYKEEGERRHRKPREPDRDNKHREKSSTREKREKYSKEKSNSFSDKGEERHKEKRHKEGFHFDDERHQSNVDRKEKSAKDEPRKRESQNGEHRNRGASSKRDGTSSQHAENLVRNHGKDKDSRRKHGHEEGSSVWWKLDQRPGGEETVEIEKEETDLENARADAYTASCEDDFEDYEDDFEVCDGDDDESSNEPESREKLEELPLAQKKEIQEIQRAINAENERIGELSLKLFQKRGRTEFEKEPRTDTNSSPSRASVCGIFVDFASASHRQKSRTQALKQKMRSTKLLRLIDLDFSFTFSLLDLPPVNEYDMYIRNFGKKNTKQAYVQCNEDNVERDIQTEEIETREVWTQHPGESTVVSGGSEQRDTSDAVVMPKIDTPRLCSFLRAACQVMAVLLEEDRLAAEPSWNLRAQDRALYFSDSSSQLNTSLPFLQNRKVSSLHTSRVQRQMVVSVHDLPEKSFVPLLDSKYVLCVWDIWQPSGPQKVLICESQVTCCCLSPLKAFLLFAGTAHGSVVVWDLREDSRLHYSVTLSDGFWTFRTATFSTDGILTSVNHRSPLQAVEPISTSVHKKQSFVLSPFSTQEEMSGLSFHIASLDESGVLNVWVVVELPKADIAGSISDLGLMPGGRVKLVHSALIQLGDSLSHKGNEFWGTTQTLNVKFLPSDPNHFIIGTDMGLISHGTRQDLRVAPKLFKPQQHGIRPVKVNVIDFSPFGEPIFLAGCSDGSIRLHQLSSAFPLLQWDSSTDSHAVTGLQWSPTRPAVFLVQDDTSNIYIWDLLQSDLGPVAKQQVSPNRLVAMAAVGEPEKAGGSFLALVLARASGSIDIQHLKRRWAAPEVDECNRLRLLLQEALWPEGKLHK

dynein light chain LC8 (DYNLL1/2) (from UniProt P63167) (natural protein)
stoichiometry N [1]: 2

B1: dynein-2 intermediate chain WDR34 (natural protein)
chain: MATRAQPGPLSQAGSAGVAALATVGVASGPGPGRPGPLQDETLGVASVPSQWRAVQGIRWETKSCQTASIATASASAQARNHVDAQVQTEAPVPVSVQPPSQYDIPRLAAFLRRVEAMVIRELNKNWQSHAFDGFEVNWTEQQQMVSCLYTLGYPPAQAQGLHVTSISWNSTGSVVACAYGRLDHGDWSTLKSFVCAWNLDRRDLRPQQPSAVVEVPSAVLCLAFHPTQPSHVAGGLYSGEVLVWDLSRLEDPLLWRTGLTDDTHTDPVSQVVWLPEPGHSHRFQVLSVATDGKVLLWQGIGVGQLQLTEGFALVMQQLPRSTKLKKHPRGETEVGATAVAFSSFDPRLFILGTEGGFPLKCSLAAGEAALTRMPSSVPLRAPAQFTFSPHGGPIYSVSCSPFHRNLFLSAGTDGHVHLYSMLQAPPLTSLQLSLKYLFAVRWSPVRPLVFAAASGKGDVQLFDLQKSSQKPTVLIKQTQDESPVYCLEFNSQQTQLLAAGDAQGTVKVWQLSTEFTEQGPREAEDLDCLAAEVAA
binding result [2]: binds
